The target of assay [1] is DENV4_Burma/63632/1976 sE protein (aa 1-395) (Dengue virus 4 (strain Burma/63632/1976)). The assay is described as follows: crystal structure.
Assay [2] deals with K^L66A C10 mAb mutant (IgG1) (human). The assay is described as follows: BLI. (In BLI a coated tip is dipped into the sample, and binding shifts an interference pattern.)
Assay [3] has as its target DENV2 strain 16681 envelope (E) protein on virions (Dengue virus 2 (strain 16681)). The assay is described as follows: ELISA.
Assay [4] addresses DENV3 strain H87 envelope (E) protein on virions (Dengue virus 3 (strain H87)). As to the kind of experiment: ELISA. In general terms: An ELISA detects its analyte on a solid surface through an enzyme-linked reagent.
The target in assay [5] is DENV4 strain 1-0093 envelope (E) protein on virions (Dengue virus 4 (strain 1-0093)). The assay is described as follows: ELISA.
In assay [6] the target is ZIKV-H/PF/2013 sE protein (aa 1-404) (Zika virus (strain H/PF/2013)). As to the kind of experiment: crystal structure.
Assay [7] shares this target. As to the kind of experiment: SEC-MALS; Superdex 200 10/300 GL; Tris 50 mM pH 8.0, NaCl 500 mM; about 150 ug protein; proteins alone and in complex. In general terms: Size exclusion chromatography separates by hydrodynamic size, large species first.
In assay [8] the target is DENV1 strain Hawaii envelope (E) protein on virions (Dengue virus 1 (strain Hawaii)). The assay is described as follows: ELISA; apparent.
The target in assay [9] is DENV2 A259C (sE)2, disulfide engineered mutant dimer. The assay is described as follows: BLI (steady state binding).
The target in assay [10] is DENV3 A257C (sE)2, disulfide engineered mutant dimer. The assay is described as follows: BLI (steady state binding).
Assay [11] has as its target DENV4 A259C (sE)2, disulfide engineered mutant dimer. As to the kind of experiment: BLI (steady state binding).
In assay [12] the target is ZIKV-H/PF/2013 sE protein (aa 1-404). The assay is described as follows: BLI (steady state binding).
For assay [13], the target named is DENV3-paH881 sE protein (aa 1-393) (Dengue virus 3 (strain paH881)). The assay is described as follows: crystal structure.
Assay [14] has the same target. As to the kind of experiment: crystal structure; unbound sE.
Assay [15] has as its target DENV1-FGA/89 sE protein (aa 1-395) (Dengue virus 1 (strain FGA/89)). The assay is described as follows: crystal structure.
For assay [16] the target is unchanged. The assay is described as follows: crystal structure; unbound sE.

Take “DENV4_Burma/63632/1976 sE protein (aa 1-395) (domain or fragment)”: the stoichiometry N in [1] was found to be 2.

For the substance “DENV2 A259C (sE)2, disulfide engineered mutant dimer (domain or fragment)”, in [2], the drop in affinity against wild-type C10 was over 1 log.

“C10 monovalent antigen binding fragment (Fab)”: the fold difference in EC50 for virion binding, bivalent versus monovalent in assay [3] worked out at 10 fold; in [4], 2 logs; in [5] it was 10 fold. Regarding “ZIKV-H/PF/2013 sE protein (aa 1-404) (domain or fragment)”, the stoichiometry N in assay [6] and in assay [7] was 2 in each case.

With C10 bivalent F(ab')2, the Kd in assay [8] came out at 3.84 nM. Regarding “DENV4 A259C (sE)2, disulfide engineered mutant dimer (domain or fragment)”, the drop in affinity against wild-type C10 in [2] was over 1 log. Consider “C10 intact bivalent IgG1 (human monoclonal antibody EDE1 C10) L:K66A”, for which the Kd was found to be 259 nM in [9], 223 nM in assay [10], 1370 nM in assay [11] and 40.3 nM in assay [12]. With “DENV3-paH881 sE protein (aa 1-393) (domain or fragment)”, the stoichiometry N in assay [13] and in assay [14] was 2 in each case.

On to “DENV3 A257C (sE)2, disulfide engineered mutant dimer (domain or fragment)”, for which the drop in affinity against wild-type C10 in [2] is over 1 log. With “DENV1-FGA/89 sE protein (aa 1-395) (domain or fragment)”, the stoichiometry N in [15] and in assay [16] was 2 each time.

Usually stoichiometry N stands for a count of units in the complex or per binding partner.

(Values after article PMC8724787.)
